Experiment: yeast display, Sf9 membrane polyspecificity reagent, FACS + sequencing; frameworks hold sequencing errors
Method in brief: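 Using colony PCR, genes from sorted yeast display clones were amplified, then sequenced on MiSeq at 2 × 250 and filtered by CDR length. The clones had been stained with 10% biotinylated, detergent-solubilized Sf9 membrane reagent for 1 hour at 4 °C and sorted by FACS into low and high (top ~1%) gates on anti-HA and streptavidin fluorescence. Polyreactivity labels come from the gate of origin.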

Sequence	polyreactivity (PSR sort gate)
QVQLVESGGGLVQAGGSLRLSCAASGFIFPVYAMGWYTQGGGKERELVADISSDGSTNYADSVKGRFTISRDNAKNTVYLQMNSLKPEDTAVYYCAREDNLRHQSDSRYDYWGQGTQVTVSS	low polyreactivity
QVQLVESGGGLVQAGGSLRLSCAASGFIFPWYAMGGYRQAPRKERELVAAITSGGTTYYADSVKGRFTISRDNAKNTVYLQMNSLKPEDTAVYYCAAQYYFYPHEFDYWGQGTQVTVSS	low polyreactivity
QVQLVESGGGLVQAGGSLRLSCAASGFIFPYYAMGWYRQAPGKERELVAAITRSGGRTYYADSVKGRFTISRDNAKNTVYLQMNSLKPEDTAVYYCAVRYIRYRNLKYDFWGQGTHVTVSS	high polyreactivity
QVQLVESGGGLVQAGGSLRLSCAASGFIFQAYALGWYRQAPGKERELVASISYSGSRTYYADSVKGRFTISRDNAKNTVYLQMNSLKPEDTAGYYCAARYGRYYKYNYWGQGTQVTVSS	high polyreactivity
QVQLVESGGGLVQAGGSLRLSCAASGFIFQAYAMGWYRQAPGKERELVAAISSSGGSTYYADSVTGRFTISRDNAKNTVYLQMNSLKPEDTAVYYCAALRYVKMLAQAYEYWGQGTQVTVSS	high polyreactivity
QVQLVESGGGLVQAGGSLRLSCAASGFIFQDYALGWYRKAPGKERELVAAITQSSGSTYYADSVKGRFTISRDNAKNTVYLQMNSLKPEDTAVYYCNTAYDFSRQASYDYWGQGTQVTVSS	low polyreactivity
QVQLVESGGGLVQAGGSLRLSCAASGFIFQEYAMGWYRQAPGKERELVAAITSGGSTNYADSVKGRFTISRDNAKNTVYLQMNSLKPADTAVYYCNVDSPDYYYDYDYWGQGTQVTVSS	low polyreactivity
QVQLVESGGGLVQAGGSLRLSCAASGFIFQPYAMGWYRQAPGKERELVAAITSRGGRTYYADSVKGRITISRDNAKNTVYLQMNSLKPEDTAVYYCNADIYASEYYYWGQGTQVTVSS	low polyreactivity
QVQLVESGGGLVQAGGSLRLSCAASGFIFQSYAMGWYRQAPGKERELVAAITRSGGRTYYADSVKGRFTISRDNAKNTVYLQMNSLKPEDTAVYYCAAETSYPGIYRFYYWGQGTQVTVSS	high polyreactivity
QVQLVESGGGLVQAGGSLRLSCAASGFIFQVYAMGWYRQAPGKERELVAAISDDGSTNYADSVKGRFTISRDNAKYTVYLQMNSLKPEDTAVYYCAKESWGRLYYRYDYWGQGTQVTVSS	low polyreactivity
QVQLVESGGGLVQAGGSLRLSCAASGFIFQWYAMGWYRPAPGKERELVAGISAGSTNYADSVKGRFTISRDNAKNTVYLQMNSLKPEDTAVYYCAARDYYIPYYSPGYPYDYWGQGTQVTVSS	high polyreactivity
QVQLVESGGGLVQAGGSLRLSCAASGFIFRAYAMGWYRQAPGKERELVAAISRSGSRTYYADSVKGRFTISRDHAKNTVYLQMNSLKPEDTAVYYCAADHGSLLYDYWGQGTQVTVSS	high polyreactivity
QVQLVESGGGLVQAGGSLRLSCAASGFIFRAYAMGWYRQAPGKERELVAAISWRGTSTYYADSVKGRFTISRDNAKNTVYLQMNSLKPEDTAVYYCARRRYLPFSRSQGSEDYWGQGTQVTVSS	high polyreactivity
QVQLVESGGGLVQAGGSLRLSCAASGFIFRDYVMGWYRQAPGKERELVAAISYRDGSTYYADSVKGRFTISRDNAKNTVYLQMNSLKPEDTAVYYCNAPGYQGYEYWGQGTQVTVSS	low polyreactivity
QVQLVESGGGLVQAGGSLRLSCAASGFIFRFYAMGWYRQAPGKERELVAGISSSGGSTYYADSLKGRFTISRDNAKTTVYLQMNSLKPEDTAVYYCNAKRSDQSSKTFNYWGQGTQVTVSS	low polyreactivity
QVQLVESGGGLVQAGGSLRLSCAASGFIFRFYAMGWYRQAPGKERELVAGISSSGGSTYYADSVKGRFTISRDNAKNTVYLQMNSLKPEDTAVYYCNAKRSDQSSKTFNYWGQGTQVTVSS	low polyreactivity
QVQLVESGGGLVQAGGSLRLSCAASGFIFRFYAMGWYRQAPGKERELVASISRRAGRTYYADSVKGRFTISRDNAKNTVYLQMNSLKPEDTAVYYCAASGFGSFRYSSTYDYWGQCTQVTVSS	high polyreactivity
QVQLVESGGGLVQAGGSLRLSCAASGFIFRGNTMGWYRQAPGKERELVAAISASGGSTYYADSVKGRFTISRDNAKNTVYLQMNSLKPEDTAVYYCNVAVIYRSRPYWYGMDYWGQGTQVTVSS	high polyreactivity
QVQLVESGGGLVQAGGSLRLSCAASGFIFRGYAMGWYRQAPGKERELVAAISRRGGSTYYADSVKGRFTISRHNAKNTVYLLMNSLKPEDTAVYYCNADTTQQGNVRVGYWGQGTQVTVSS	high polyreactivity
QVQLVESGGGLVQAGGSLRLSCAASGFIFRGYAMGWYRQAPGKERELVAAISTGGGRTYYADSVKGRFTISRDNAKNTVYLQMNSLKPEDTAVYYCNRRSYTQVLMDYWGQGTQVTVSS	high polyreactivity
QVQLVESGGGLVQAGGSLRLSCAASGFIFRHNGMGWYRQAPGKERELVAAITKRGGDTYYADSVKGRFTISRDNAKNSVYLQMISLKREDTAVYYCTVDVRYPVSFDYDYWGQGNQVTVSS	low polyreactivity

Sequence	polyreactivity (PSR sort gate)
QVQLVESGGGLVQAGGSLRLSCAASGFIFRHYAMGWYRQAPGKEREFVAAISYRGDSTYYADSVKGRFTISRDNAKNTVYLQMNSLKPEDTAVYYCAATYVSSAYYSYDYWGQGTQVTVSS	high polyreactivity
QVQLVESGGGLVQAGGSLRLSCAASGFIFRHYAMGWYRQAPGKERELVAGINTSGGSTHYADSVKGRFTISRDNAKNTVYLQMNSLKPEDTAVYYCAADVYRYYAGSRYYYWGQGSQVTVSS	low polyreactivity
QVQLVESGGGLVQAGGSLRLSCAASGFIFRINAMGWYRQAPGKERELVAAITSSGGSTYYADSVKGRFTISRDNAKNTVYLQMNSLKPEDTAVYYCAASRPRPPSSRRMDYWGQGTQVTVSS	high polyreactivity
QVQLVESGGGLVQAGGSLRLSCAASGFIFRIYAMGWYRQAPGKERELVAAITWDGVSTYYADSVKGRFTISRDNAKNTVYLQMNSLKPEDTAVFYCAARKRSYPYYYWGQGTQVNVSS	high polyreactivity
QVQLVESGGGLVQAGGSLRLSCAASGFIFRKYAMGWYRQAPGKERELVAAITASGGSTYYGDSVKGRFTISRDNAKNTVYLQLNSLKPEDTAVYYCATDFHGAERWLKYVYWGQGTQVTVSS	high polyreactivity
QVQLVESGGGLVQAGGSLRLSCAASGFIFRKYAMGWYRQAPGKERELVAAITSSGGSTYYAGSVKGRFTISRDNAKNTVYLQMNSLKPEDTAVYYCAARLKQSGHDYWGQGTQVTVSS	high polyreactivity
QVQLVESGGGLVQAGGSLRLSCAASGFIFRLYAMGWYRQAPGKERELVAALSSGTSTYYADSVKGRFTISRDNAKNTVYLQMNSLKPEDSAVYYCAAVPRVNWSRYVYFWYDYWGQGTQVTVSS	high polyreactivity
QVQLVESGGGLVQAGGSLRLSCAASGFIFRNYAMGWYRQAPGKERELVAAITGRGTYTYYADSVKGRFTISRDNAKNTVYLQMNSLKPEDTAVYYCAARSLALVYRKYDYWGQGTQVTVSS	high polyreactivity
QVQLVESGGGLVQAGGSLRLSCAASGFIFRQNAMGWSRQAPGKDRELVAAISNAGITNYADSVKGRFTISRDNAKITVYLQMNSLKPEDTAVYYCAAVEFRDSTFVVVSSPTSKSDYWGQGTQVTVSS	low polyreactivity
QVQLVESGGGLVQAGGSLRLSCAASGFIFRQYAMGWYRQAPGKERELVAAISVGGGRTYYADSVKGRFTISRDNAKNTVYLQMNSLKPEVTAVYYCAASNWHSRGSGEYYWGQGTQVTVSS	high polyreactivity
QVQLVESGGGLVQAGGSLRLSCAASGFIFRRNAMGWYRQAPGKERELVAAIRFRSGSTYYAHSVKGRFTISRDNAKNTVYLQKNSLKPEDTAVYYCAADNKRSWRYAYNYWGQRTQVTVSS	high polyreactivity
QVQLVESGGGLVQAGGSLRLSCAASGFIFRRNAMGWYRQAPGKERELVAAIRQRGDSTYYADSVKGRFTISRDNAKNTVYLQMNSLKPEDTAVYYCATDHAYFHPEYDYWGQGTQVTVSS	low polyreactivity
QVQLVESGGGLVQAGGSLRLSCAASGFIFRRNAMGWYRQAPGKERELVAAITGGGGSTYYADSVKGRFTISRDNAKNTVYLQMNSLKPEDTAVYYCAVDWSRFYNRGGDYWGQGTQVTVSS	high polyreactivity
QVQLVESGGGLVQAGGSLRLSCAASGFIFRRNAMGWYRQAPGKERELVAAITKSGGSTYYADSVKGRFTISRDNAKNTVYLQMNSLKPEDTAVYYCAASDASGGGYWGQGTQVTVSS	high polyreactivity
QVQLVESGGGLVQAGGSLRLSCAASGFIFRRNAMGWYRQAPGKERELVAVISSRGGTYYADSVKGRFTISRDNAKNTVYLQMNSLKPEDTAVYYCAVDRGKYFPYRYDYWGQGTQVTVSS	high polyreactivity
QVQLVESGGGLVQAGGSLRLSCAASGFIFRRYAMGWYGQAPGKERELVAVIRSSGGSTYYADSVKGRFTISRDYAKNTVYLQMISLNPEDTAVYYCAAVSYSSYRYDYWGQGTQVTVSS	high polyreactivity
QVQLVESGGGLVQAGGSLRLSCAASGFIFRRYAMGWYRPAPGKERELVAAITGGGGSTYYADSVKGRFTISRDNAKNTVYLQMNSLKPEDSAVYYCAASQARNYKIYDYWGQGTQVTVSS	high polyreactivity
QVQLVESGGGLVQAGGSLRLSCAASGFIFRRYAMGWYRQAPGKERELVAAINYSGGSTYYADSVKGRFTISRDNAKNTVSLQMNSLKPEDTSVYYCNAFGLRYYEYDYWGQGTQVTVSS	low polyreactivity
QVQLVESGGGLVQAGGSLRLSCAASGFIFRRYAMGWYRQAPGKERELVAAISRGGGSTYYADSVKGRFTISRDNAKNTVYFQMNSLKPEDTAVYYCAARFVPYDAPLNERDYWGQGTQVTVSS	high polyreactivity
QVQLVESGGGLVQAGGSLRLSCAASGFIFRRYAMGWYRQAPGKERELVAAISWSGGSTYYADSVKGRFTISRDNAKNTVYLQMNSLKPEDTAVYYCAKVPTSASPYDHWGQGTQVTVSS	high polyreactivity

From the nanobody polyreactivity screen of Harvey et al. (2022)
